Results reported in patent US5989519A, “Technetium-99m labeled peptides for imaging inflammation” (Diatide, Inc., priority 1994, dated 1999).
Numbered stars: 1 amine (or outer) side, 2 acyl side, 3 side chain; on linkers, the order of the positions; unused ones are H or OH. Square brackets hold non-standard residues; d marks the D form. Ends that are not written are not given here. Peptide text beside a SMILES is read from it. * marks the point of attachment. BAT = N6,N9-bis(2-methyl-2-mercaptopropyl)-6,9-diazanonanoic acid (chelator), CC(C)(S)CNCCN(CCCCC(=O)*)CC(C)(C)S; C(Acm) = CC(=O)NCSC[C@H](N[*:1])C(=O)[*:2]; X1 = CC(C)(S)CNCCN(CCCCC(=O)*)CC(C)(C)S; pGlu = O=C1CC[C@@H](C(=O)O)N1; Picolinoyl = O=C(c1ccccn1)*; Acm = CC(=O)NC*; For = O=C*

Experiments:
in vivo = assay: in vivo; set-up: species or system New Zealand white rabbits; settings: rabbit, iv
Description: (§1) After 24 h, the animals were sedated by i.m. injection of ketamine and xylazine, and then injected i.v. with Tc-99m labeled peptide (≤150 μg, 2-10 mCi). The animals were positioned supine in the field of view of a gamma camera (LEAP colimator/photopeaked for Tc-99m) and imaged over the first hour post-injection, and then at approximately 1 h intervals over the next three hours post injection. Animals were allowed to recover between image acquisitions and re-anesthetized as needed.
(§2) Upon completion of the final imaging, each animal was sacrificed by overdose of phenobarbital i.v. and dissected to obtain samples of blood and of infected and control muscle tissue. The tissue samples were weighed, and along with a standard amount of the injected dose, were counted using a gamma counter, and the percent injected dose (per gram of tissue) remaining in the tissues was determined. Ratios of percent of injected dose per gram of infected versus non-infected muscle tissue, and of infected muscle tissue versus blood, were calculated for each peptide. Scintiphotos of whole body and leg images of a rabbit injected with a Tc-99m labeled reagent of the invention, having the formula

infected muscle tissue = assay: in vivo; set-up: species or system New Zealand white rabbits; settings: rabbit; for Blood (% ID/g) / Control Muscle (% ID/g): iv
Description: as §1, §2

[1] = New Zealand white, total radioactivity, Blood (% ID/g)
[2] = New Zealand white, total radioactivity, Control Muscle (% ID/g)

Compound	tissue uptake (in vivo; [1]) [%ID/g]	tissue uptake (in vivo; [2]) [%ID/g]	Ratio of Infected/Blood (infected muscle tissue)	Ratio of Infected/Control (infected muscle tissue)	Blood (% ID/g) (infected muscle tissue)	Control Muscle (% ID/g) (infected muscle tissue)	tissue uptake (in vivo; Blood (% ID/g)) [%ID/g]	tissue uptake (in vivo; Control Muscle (% ID/g)) [%ID/g]
CC(C)C[C@H](NC(=O)C1(NC=O)CCSCC1)C(=O)N[C@@H](Cc1ccccc1)C(=O)NCCCCCN(CCNCC(C)(C)S)CC(C)(C)S [formyl.Thp.LF.[BAM]]	0.006	0.001	0.83	4.80				
pGlu.GVNDNEEGFFSARCAcm GCAcm amide ([pGlu]GVNDNEEGFFSARC(Acm)GC(Acm)-NH2; also: Tc-99m label)			0.68	5.68	0.024	0.0029		
acetyl.KKKKKCAcm GCAcm GGPLYKKIIKKLLES (Ac-KKKKKC(Acm)GC(Acm)GGPLYKKIIKKLLES; also: Tc-99m label) [Ac.KKKKKCAcm GCAcm GGPLYKKIIKKLLES]			0.93	5.60	0.006	0.0019		
Pic.GC(VGVAPG)3 amide (Picolinoyl-GCVGVAPGVGVAPGVGVAPG-NH2; numbers in words are those of the source; also: Tc-99m label) [PicGC(VGVAPG)3 amide]			0.69	5.58	0.015	0.0019		
CAcm GCAcm (VGVAPG)3 amide (C(Acm)GC(Acm)VGVAPGVGVAPGVGVAPG-NH2; also: Tc-99m label)			1.69	3.94	0.011	0.0017		
[BAT].(VPGVG)4 amide ({BAT}-VPGVGVPGVGVPGVGVPGVG-NH2; also: Tc-99m label)			1.68	5.33	0.002	0.0006		
CSCC[C@H](NC=O)C(=O)N[C@@H](CC(C)C)C(=O)N[C@@H](Cc1ccccc1)C(=O)N[C@@H](CCCCNC(=O)CCCCN(CCNCC(C)(C)S)CC(C)(C)S)C(N)=O (99mTc complex, metal not drawn) [formyl.MLFK.[BAT]amide, formyl.MLFK.[BAT].amide] (For-MLFK(X1)-NH2)			3.58	7.68			0.006	0.0028
[BAT].GGPLYKKIIKKLLES ({BAT}-GGPLYKKIIKKLLES; also: Tc-99m label)			0.50	7.00	0.004	0.0003		
CAcm GCAcm TKPR (C(Acm)GC(Acm)TKPR; also: Tc-99m label)			2.07	2.40	0.003	0.0025		
CCCC(CCC)(NC(=O)[C@H](CCSC)NC=O)C(=O)N[C@@H](Cc1ccccc1)C(=O)NCCCCCN(CCNCC(C)(C)S)CC(C)(C)S [formyl.M.Dpg.F.[BAM], formyl.M.DpgF.[BAM]]	0.003	0.0007	3.53	15.14				
acetyl.CGGGPLYKKIIKKLLES (Ac-CGGGPLYKKIIKKLLES) [Ac.CGGGPLYKKIIKKLLES]			0.74	4.70	0.032	0.0050		
acetyl.CAcm GCAcm GGG(VPGVG)4 amide (Ac-C(Acm)GC(Acm)GGGVPGVGVPGVGVPGVGVPGVG-NH2; also: Tc-99m label) [Ac.CAcm GCAcm GGG(VPGVG)4 amide]			0.63	3.97	0.049	0.0077		
(acetyl.CCAcm GCAcm PLYKKIIKKLLES)2.BSME ({Ac-Cys-C(Acm)-Gly-C(Acm)}-PLYKKIIKKLLES; also: dimer via BSME, Tc-99m label) [(Ac.CCAcm GCAcm PLYKKIIKKLLES)2 BSME]			0.84	7.45	0.010	0.0011		
